According to patent US20190338048A1:
Like-named read-outs stand apart in the source and are kept apart here. Blank lines part the entries; values can stand above or below the substance they belong to.

Legend:
[1] = target: CAT-2200 Fab heavy chain L143D_K145T; assay: LCCA
[2] = target: CAT-2200 Fab heavy chain S186K; assay: LCCA
[3] = target: CAT-2200 Fab heavy chain L143A_Q179K; assay: LCCA
[4] = target: CAT-2200 Fab heavy chain L143A_Q179K; assay: LCCA; remark: listed apart in the source
[5] = target: CAT-2200 Fab heavy chain Q179K; assay: LCCA
[6] = target: CR8071 lambda light chain K129T_V133D (L1 of designs 3102 and 3109, system C); assay: SMCA LC-MS
[7] = target: CR8071 lambda light chain K129T_V133D (L1 of designs 3102 and 3109, system C); assay: SMCA LC-MS; remark: listed apart in the source
[8] = target: CR8071 lambda light chain K129T_V133D (L1 of designs 3102 and 3109, system C); assay: SMCA LC-MS; remark: listed apart in the source
[9] = target: CAT-2200 lambda light chain K129T_V133D_L135S; assay: LCCA, SPR tag read-out
[10] = target: Pertuzumab kappa light chain S131K_L135K; assay: LCCA, SPR tag read-out
[11] = target: Pertuzumab kappa light chain S121K_S131K_L135K; assay: LCCA, SPR tag read-out
[12] = target: Pertuzumab kappa light chain V133G_S176D_T178D (L2), N-terminal HA tag; assay: LCCA, SPR of light chain tags
[13] = target: Pertuzumab kappa light chain V133G_S176D (L2), N-terminal HA tag; assay: LCCA, SPR of light chain tags
[14] = target: CAT-2200 lambda light chain S176K_Y178R (L1), N-terminal FLAG tag; assay: LCCA, SPR of light chain tags
[15] = target: Pertuzumab kappa light chain V133G_S176D (L2), N-terminal HA tag; assay: LCCA, SPR of light chain tags; remark: listed apart in the source
[16] = target: Pertuzumab kappa light chain V133G_S176D (L2), N-terminal HA tag; assay: LCCA, SPR of light chain tags; remark: listed apart in the source
[17] = target: CAT-2200 lambda light chain S176K_Y178K (L1), N-terminal FLAG tag; assay: LCCA, SPR of light chain tags
[18] = target: CAT-2200 lambda light chain S176K_Y178R (L1), N-terminal FLAG tag; assay: LCCA, SPR of light chain tags; remark: listed apart in the source
[19] = target: CAT-2200 lambda light chain S176K_Y178L (L1), N-terminal FLAG tag; assay: LCCA, SPR of light chain tags
[20] = target: CAT-2200 lambda light chain S176K_Y178R (L1), N-terminal FLAG tag; assay: LCCA, SPR of light chain tags; remark: listed apart in the source
[21] = target: Pertuzumab kappa light chain Q124E_V133D (L2), N-terminal HA tag; assay: LCCA, SPR of light chain tags
[22] = target: Pertuzumab kappa light chain V133D (L2), N-terminal HA tag; assay: LCCA, SPR of light chain tags
[23] = target: Pertuzumab kappa light chain Q124E_V133D (L2), N-terminal HA tag; assay: LCCA, SPR of light chain tags; remark: listed apart in the source
[24] = target: Pertuzumab kappa light chain V133D (L2), N-terminal HA tag; assay: LCCA, SPR of light chain tags; remark: listed apart in the source
[25] = target: Pertuzumab kappa light chain Q124E_V133D (L2), N-terminal HA tag; assay: LCCA, SPR of light chain tags; remark: listed apart in the source
[26] = target: Pertuzumab kappa light chain S176E_T178E (L2), N-terminal HA tag; assay: LCCA, SPR of light chain tags
[27] = target: Pertuzumab kappa light chain S131E_V133G_T178F (L2), N-terminal HA tag; assay: LCCA, SPR of light chain tags
[28] = target: Pertuzumab kappa light chain S131D_V133G_T178F (L2), N-terminal HA tag; assay: LCCA, SPR of light chain tags
[29] = target: Pertuzumab kappa light chain S176D_T178E (L2), N-terminal HA tag; assay: LCCA, SPR of light chain tags
[30] = target: CAT-2200 lambda light chain S176K_Y178R (L1), N-terminal FLAG tag; assay: LCCA, SPR of light chain tags; remark: listed apart in the source
[31] = target: CAT-2200 lambda light chain S176K_Y178L (L1), N-terminal FLAG tag; assay: LCCA, SPR of light chain tags; remark: listed apart in the source
[32] = target: Pertuzumab kappa light chain S176E_T178E (L2), N-terminal HA tag; assay: LCCA, SPR of light chain tags; remark: listed apart in the source
[33] = target: Pertuzumab kappa light chain S131E_V133G_T178F (L2), N-terminal HA tag; assay: LCCA, SPR of light chain tags; remark: listed apart in the source
[34] = target: Pertuzumab kappa light chain S131D_V133G_T178F (L2), N-terminal HA tag; assay: LCCA, SPR of light chain tags; remark: listed apart in the source
[35] = target: Pertuzumab kappa light chain S176D_T178E (L2), N-terminal HA tag; assay: LCCA, SPR of light chain tags; remark: listed apart in the source
[36] = target: CAT-2200 lambda light chain S176K_Y178K (L1), N-terminal FLAG tag; assay: LCCA, SPR of light chain tags; remark: listed apart in the source
[37] = target: CAT-2200 lambda light chain S176K_Y178R (L1), N-terminal FLAG tag; assay: LCCA, SPR of light chain tags; remark: listed apart in the source
[38] = target: CAT-2200 lambda light chain S176K_Y178L (L1), N-terminal FLAG tag; assay: LCCA, SPR of light chain tags; remark: listed apart in the source
[39] = target: Pertuzumab kappa light chain S176E_T178E (L2), N-terminal HA tag; assay: LCCA, SPR of light chain tags; remark: listed apart in the source
[40] = target: Pertuzumab kappa light chain S131E_V133G_T178F (L2), N-terminal HA tag; assay: LCCA, SPR of light chain tags; remark: listed apart in the source
[41] = target: Pertuzumab kappa light chain S131D_V133G_T178F (L2), N-terminal HA tag; assay: LCCA, SPR of light chain tags; remark: listed apart in the source
[42] = target: Pertuzumab kappa light chain S176D_T178E (L2), N-terminal HA tag; assay: LCCA, SPR of light chain tags; remark: listed apart in the source
[43] = target: Pertuzumab kappa light chain S176E_T178E (L2), N-terminal HA tag; assay: LCCA, SPR of light chain tags; remark: listed apart in the source
[44] = target: Pertuzumab kappa light chain S176D_T178E (L2), N-terminal HA tag; assay: LCCA, SPR of light chain tags; remark: listed apart in the source
[45] = target: CAT-2200 lambda light chain Y178K (L1), N-terminal FLAG tag; assay: LCCA, SPR of light chain tags
[46] = target: CAT-2200 lambda light chain S176K_Y178K (L1), N-terminal FLAG tag; assay: LCCA, SPR of light chain tags; remark: listed apart in the source
[47] = target: Pertuzumab kappa light chain V133L_S176D_T178E (L2), N-terminal HA tag; assay: LCCA, SPR of light chain tags
[48] = target: Pertuzumab kappa light chain V133I_S176D_T178E (L2), N-terminal HA tag; assay: LCCA, SPR of light chain tags
[49] = target: Pertuzumab kappa light chain V133I_S176E_T178E (L2), N-terminal HA tag; assay: LCCA, SPR of light chain tags
[50] = target: Pertuzumab kappa light chain V133I_S176E_T178E (L2), N-terminal HA tag; assay: LCCA, SPR of light chain tags; remark: listed apart in the source
[51] = target: Pertuzumab kappa light chain V133L_S176D_T178E (L2), N-terminal HA tag; assay: LCCA, SPR of light chain tags; remark: listed apart in the source
[52] = target: Pertuzumab wild-type kappa light chain with N-terminal FLAG tag; assay: SMCA: H1, H2, L1, L2 co-expressed in CHO-3E7

H1L1:H1L2 median scalar value (ln(H1L1:H1L2)) [2]: 0.06
Substance: CAT-2200 lambda light chain K129T_V133D_Y178T

H1L1:H1L2 median scalar value (ln(H1L1:H1L2)) [5]: 0.89
Substance: CAT-2200 lambda light chain K129T_Y178E_S180E

Change in % H1L1 Pairing with respect to wild type [6]: 15.9%
% H1L1 Pairing [7]: 88.7%
Change in % H1L1 Pairing with respect to wild type [7]: 6.4%
% H1L1 Pairing [8]: 84%
Substance: CR8071 heavy chain L143K (H1 of designs 3102 and 3109, system C)

H2L2:H2L1 normalized median ratio [9]: 39%
H2L2:H2L1 median scalar value [10]: 0.48 ln(ratio)
H2L2:H2L1 normalized median ratio [10]: 61%
Substance: Pertuzumab Fab heavy chain L124E_A139I_K145T_V190I

H2L2:H2L1 median scalar value [11]: 0.25 ln(ratio)
Substance: Pertuzumab Fab heavy chain L124E_A139I_K145T_V190I_K228D

% H2L2 Pairing (over all H2 species) [52]: 79.9%
Substance: Pertuzumab wild-type full-length IgG1 heavy chain (heterodimeric Fc) (from UniProt P0DOX5 2-448)

Continued, substance first:

Substance: CAT-2200 lambda light chain E124Q_T131K_V133S
H1L1:H1L2 median scalar value (ln(H1L1:H1L2)) [1]: 0.54

Substance: CAT-2200 lambda light chain K129T_V133W_S180E
H1L1:H1L2 median scalar value (ln(H1L1:H1L2)) [3]: 1.51
H1L1:H1L2 median scalar value (ln(H1L1:H1L2)) [4]: 0.88

Substance: Pertuzumab Fab heavy chain L124R (H2), ABD2-His6 tagged
H2L2:H2L1 normalized median ratio [12]: 61%
H2L2:H2L1 normalized median scalar value ln(r1/f1) [12]: 0.43
H2L2:H2L1 normalized median ratio [13]: 85%
H2L2:H2L1 normalized median scalar value ln(r1/f1) [13]: 1.75
H2L2:H2L1 normalized median ratio [14]: 39%
H2L2:H2L1 normalized median ratio [15]: 84%
H2L2:H2L1 normalized median scalar value ln(r1/f1) [15]: 1.63
H2L2:H2L1 normalized median ratio [16]: 74%
H2L2:H2L1 normalized median scalar value ln(r1/f1) [16]: 1.06
H2L2:H2L1 normalized median ratio [17]: 16%
H2L2:H2L1 normalized median ratio [18]: 15%
H2L2:H2L1 normalized median ratio [19]: 26%

Substance: Pertuzumab Fab heavy chain L143K (H2), ABD2-His6 tagged
H2L2:H2L1 normalized median ratio [20]: 20%
H2L2:H2L1 normalized median ratio [21]: 88%
H2L2:H2L1 normalized median scalar value ln(r1/f1) [21]: 1.95
H2L2:H2L1 normalized median ratio [22]: 80%
H2L2:H2L1 normalized median scalar value ln(r1/f1) [22]: 1.39
H2L2:H2L1 normalized median ratio [23]: 86%
H2L2:H2L1 normalized median scalar value ln(r1/f1) [23]: 1.78
H2L2:H2L1 normalized median ratio [24]: 77%
H2L2:H2L1 normalized median scalar value ln(r1/f1) [24]: 1.2
H2L2:H2L1 normalized median ratio [25]: 93%
H2L2:H2L1 normalized median scalar value ln(r1/f1) [25]: 2.64
H2L2:H2L1 normalized median ratio [17]: 14%
H2L2:H2L1 normalized median ratio [18]: 12%

Substance: Pertuzumab Fab heavy chain S188K (H2), ABD2-His6 tagged
H2L2:H2L1 normalized median ratio [26]: 95%
H2L2:H2L1 normalized median scalar value ln(r1/f1) [26]: 2.87
H2L2:H2L1 normalized median scalar value ln(r1/f1) [27]: 2.35
H2L2:H2L1 normalized median ratio [28]: 89%
H2L2:H2L1 normalized median scalar value ln(r1/f1) [28]: 2.09
H2L2:H2L1 normalized median ratio [29]: 90%
H2L2:H2L1 normalized median scalar value ln(r1/f1) [29]: 2.16
H2L2:H2L1 normalized median ratio [30]: 5%
H2L2:H2L1 normalized median ratio [31]: 5%
H2L2:H2L1 normalized median scalar value ln(r1/f1) [32]: 2.75
H2L2:H2L1 normalized median scalar value ln(r1/f1) [33]: 2.77
H2L2:H2L1 normalized median ratio [34]: 86%
H2L2:H2L1 normalized median scalar value ln(r1/f1) [34]: 1.85
H2L2:H2L1 normalized median ratio [35]: 86%
H2L2:H2L1 normalized median scalar value ln(r1/f1) [35]: 1.83
H2L2:H2L1 normalized median ratio [36]: 14%
H2L2:H2L1 normalized median ratio [37]: 11%
H2L2:H2L1 normalized median ratio [38]: 15%
H2L2:H2L1 normalized median ratio [39]: 95%
H2L2:H2L1 normalized median scalar value ln(r1/f1) [39]: 2.96
H2L2:H2L1 normalized median scalar value ln(r1/f1) [40]: 2.17
H2L2:H2L1 normalized median ratio [41]: 85%
H2L2:H2L1 normalized median scalar value ln(r1/f1) [41]: 1.77
H2L2:H2L1 normalized median ratio [42]: 86%
H2L2:H2L1 normalized median scalar value ln(r1/f1) [42]: 1.78
H2L2:H2L1 normalized median ratio [17]: 14%
H2L2:H2L1 normalized median scalar value ln(r1/f1) [43]: 2.67
H2L2:H2L1 normalized median ratio [18]: 9%
H2L2:H2L1 normalized median ratio [19]: 14%
H2L2:H2L1 normalized median ratio [44]: 80%
H2L2:H2L1 normalized median scalar value ln(r1/f1) [44]: 1.41
H2L2:H2L1 normalized median ratio [45]: 20%

Substance: Pertuzumab Fab heavy chain V177I_S188K (H2), ABD2-His6 tagged
H2L2:H2L1 normalized median ratio [46]: 9%
H2L2:H2L1 normalized median ratio [47]: 91%
H2L2:H2L1 normalized median scalar value ln(r1/f1) [47]: 2.37
H2L2:H2L1 normalized median ratio [48]: 91%
H2L2:H2L1 normalized median scalar value ln(r1/f1) [48]: 2.34
H2L2:H2L1 normalized median scalar value ln(r1/f1) [49]: 2.83
H2L2:H2L1 normalized median scalar value ln(r1/f1) [50]: 2.79
H2L2:H2L1 normalized median ratio [17]: 9%
H2L2:H2L1 normalized median scalar value ln(r1/f1) [51]: 0.55
